Test results reported in patent US20210292422A1 (published 2021).
Where two headings read alike, the source gives them in different places.

T1: LRP6E1E2 (UniProt O75581 20-630)
T1 chain: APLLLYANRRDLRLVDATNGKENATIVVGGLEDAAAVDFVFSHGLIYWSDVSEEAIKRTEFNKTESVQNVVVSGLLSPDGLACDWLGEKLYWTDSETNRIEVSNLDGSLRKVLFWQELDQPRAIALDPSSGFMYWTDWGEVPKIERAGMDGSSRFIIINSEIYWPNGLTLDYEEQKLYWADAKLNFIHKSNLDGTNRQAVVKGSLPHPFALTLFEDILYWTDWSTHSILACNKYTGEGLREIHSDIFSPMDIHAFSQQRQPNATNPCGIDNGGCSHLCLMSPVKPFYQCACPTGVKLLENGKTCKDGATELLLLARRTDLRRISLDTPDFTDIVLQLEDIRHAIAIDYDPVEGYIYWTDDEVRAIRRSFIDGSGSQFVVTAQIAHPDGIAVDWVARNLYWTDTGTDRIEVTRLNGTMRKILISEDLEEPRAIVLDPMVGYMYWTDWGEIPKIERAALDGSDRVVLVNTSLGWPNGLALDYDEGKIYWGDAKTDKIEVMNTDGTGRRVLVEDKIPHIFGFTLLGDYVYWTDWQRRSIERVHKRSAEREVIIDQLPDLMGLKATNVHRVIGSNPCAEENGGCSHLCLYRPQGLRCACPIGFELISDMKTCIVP


How the values were obtained:
Assay in all cases: BLI (Octet)
Frizzled 1 (Fzd1) = Frizzled 1 (Fzd1) (UniProt Q9UP38 111-230)
LRP6E1E2 [1] = molecular target: T1, LRP6E1E2
LRP6E1E2 [2] = molecular target: T1, LRP6E1E2

| Kd (Frizzled 1 (Fzd1)) | Kd (LRP6E1E2 [1]) | Kd (LRP6E1E2 [2]) | Binder |
| --- | --- | --- | --- |
| 0.4 nM | 5.4 nM | – | F1:10:L1:Fc (bispecific antibody) EVQLVESGGGLVQPGGSLRLSCAASGFTFSHYTLSWVRQAPGKGLEWVSVISGDGSYTYYADSVKGRFTISSDNSKNTLYLQMNSLRAEDTAVYYCARNFIKYVFANWGQGTLVTVSSGGGGSGGGGSGGGGSDIELTQPPSVSVAPGQTARISCSGDNIGSFYVHWYQQKPGQAPVLVIYDKSNRPSGIPERFSGSNSGNTATLTISGTQAEDEADYYCQSYANTLSLVFGGGTKLTVLGSGSGGSGSGDVKLVESGGGLVKLGGSLRLSCAASGFSFSTSYMSWVRQTPEKRLELVAAINLNGGSTYYSDTVKGRFTISRDNAKNTLYLQMSSLKSEDTAFYYCASELAGYGTPFAYWGQGTLVTVSAGSAASGSSGGSSSGADIVLTQSPATLSVTPGDSVSLSCKASQSISYNLHWYQQKSHESPRLLIKYTSQSISGIPSRFSGSGSGTDFTLTINNVETEDFGMYFCQQSNSWPLTFGAGTKLEVKGSGSGDKTHTCPPCPAPEAAGGPSVFLFPPKPKDTLMISRTPEVTCVVVDVSHEDPEVKFNWYVDGVEVHNAKTKPREEQYNSTYRVVSVLTVLHQDWLNGKEYKCKVSNKALGAPIEKTISKAKGQPREPQVYTLPPSREEMTKNQVSLTCLVKGFYPSDIAVEWESNGQPENNYKTTPPVLDSDGSFFLYSKLTVDKSRWQQGNVFSCSVMHEALHNHYTQKSLSLSPGK |
| 0.4 nM | 5.5 nM | – | F1:15:L1:Fc (bispecific antibody) EVQLVESGGGLVQPGGSLRLSCAASGFTFSHYTLSWVRQAPGKGLEWVSVISGDGSYTYYADSVKGRFTISSDNSKNTLYLQMNSLRAEDTAVYYCARNFIKYVFANWGQGTLVTVSSGGGGSGGGGSGGGGSDIELTQPPSVSVAPGQTARISCSGDNIGSFYVHWYQQKPGQAPVLVIYDKSNRPSGIPERFSGSNSGNTATLTISGTQAEDEADYYCQSYANTLSLVFGGGTKLTVLGSGSGGSGSGGSSGGDVKLVESGGGLVKLGGSLRLSCAASGFSFSTSYMSWVRQTPEKRLELVAAINLNGGSTYYSDTVKGRFTISRDNAKNTLYLQMSSLKSEDTAFYYCASELAGYGTPFAYWGQGTLVTVSAGSAASGSSGGSSSGADIVLTQSPATLSVTPGDSVSLSCKASQSISYNLHWYQQKSHESPRLLIKYTSQSISGIPSRFSGSGSGTDFTLTINNVETEDFGMYFCQQSNSWPLTFGAGTKLEVKGSGSGDKTHTCPPCPAPEAAGGPSVFLFPPKPKDTLMISRTPEVTCVVVDVSHEDPEVKFNWYVDGVEVHNAKTKPREEQYNSTYRVVSVLTVLHQDWLNGKEYKCKVSNKALGAPIEKTISKAKGQPREPQVYTLPPSREEMTKNQVSLTCLVKGFYPSDIAVEWESNGQPENNYKTTPPVLDSDGSFFLYSKLTVDKSRWQQGNVFSCSVMHEALHNHYTQKSLSLSPGK |
| 0.3 nM | 5.1 nM | – | F1:5:L1:Fc (bispecific antibody) EVQLVESGGGLVQPGGSLRLSCAASGFTFSHYTLSWVRQAPGKGLEWVSVISGDGSYTYYADSVKGRFTISSDNSKNTLYLQMNSLRAEDTAVYYCARNFIKYVFANWGQGTLVTVSSGGGGSGGGGSGGGGSDIELTQPPSVSVAPGQTARISCSGDNIGSFYVHWYQQKPGQAPVLVIYDKSNRPSGIPERFSGSNSGNTATLTISGTQAEDEADYYCQSYANTLSLVFGGGTKLTVLGSGSGDVKLVESGGGLVKLGGSLRLSCAASGFSFSTSYMSWVRQTPEKRLELVAAINLNGGSTYYSDTVKGRFTISRDNAKNTLYLQMSSLKSEDTAFYYCASELAGYGTPFAYWGQGTLVTVSAGSAASGSSGGSSSGADIVLTQSPATLSVTPGDSVSLSCKASQSISYNLHWYQQKSHESPRLLIKYTSQSISGIPSRFSGSGSGTDFTLTINNVETEDFGMYFCQQSNSWPLTFGAGTKLEVKGSGSGDKTHTCPPCPAPEAAGGPSVFLFPPKPKDTLMISRTPEVTCVVVDVSHEDPEVKFNWYVDGVEVHNAKTKPREEQYNSTYRVVSVLTVLHQDWLNGKEYKCKVSNKALGAPIEKTISKAKGQPREPQVYTLPPSREEMTKNQVSLTCLVKGFYPSDIAVEWESNGQPENNYKTTPPVLDSDGSFFLYSKLTVDKSRWQQGNVFSCSVMHEALHNHYTQKSLSLSPGK |
| 0.8 nM | 5.6 nM | – | L1:15:F1:Fc (bispecific antibody) DVKLVESGGGLVKLGGSLRLSCAASGFSFSTSYMSWVRQTPEKRLELVAAINLNGGSTYYSDTVKGRFTISRDNAKNTLYLQMSSLKSEDTAFYYCASELAGYGTPFAYWGQGTLVTVSAGSAASGSSGGSSSGADIVLTQSPATLSVTPGDSVSLSCKASQSISYNLHWYQQKSHESPRLLIKYTSQSISGIPSRFSGSGSGTDFTLTINNVETEDFGMYFCQQSNSWPLTFGAGTKLEVKGSGSGGSGSGGSSGGEVQLVESGGGLVQPGGSLRLSCAASGFTFSHYTLSWVRQAPGKGLEWVSVISGDGSYTYYADSVKGRFTISSDNSKNTLYLQMNSLRAEDTAVYYCARNFIKYVFANWGQGTLVTVSSGGGGSGGGGSGGGGSDIELTQPPSVSVAPGQTARISCSGDNIGSFYVHWYQQKPGQAPVLVIYDKSNRPSGIPERFSGSNSGNTATLTISGTQAEDEADYYCQSYANTLSLVFGGGTKLTVLGSGSGDKTHTCPPCPAPEAAGGPSVFLFPPKPKDTLMISRTPEVTCVVVDVSHEDPEVKFNWYVDGVEVHNAKTKPREEQYNSTYRVVSVLTVLHQDWLNGKEYKCKVSNKALGAPIEKTISKAKGQPREPQVYTLPPSREEMTKNQVSLTCLVKGFYPSDIAVEWESNGQPENNYKTTPPVLDSDGSFFLYSKLTVDKSRWQQGNVFSCSVMHEALHNHYTQKSLSLSPGK |
| 0.7 nM | 5.9 nM | – | L1:10:F1:Fc (bispecific antibody) DVKLVESGGGLVKLGGSLRLSCAASGFSFSTSYMSWVRQTPEKRLELVAAINLNGGSTYYSDTVKGRFTISRDNAKNTLYLQMSSLKSEDTAFYYCASELAGYGTPFAYWGQGTLVTVSAGSAASGSSGGSSSGADIVLTQSPATLSVTPGDSVSLSCKASQSISYNLHWYQQKSHESPRLLIKYTSQSISGIPSRFSGSGSGTDFTLTINNVETEDFGMYFCQQSNSWPLTFGAGTKLEVKGSGSGGSGSGEVQLVESGGGLVQPGGSLRLSCAASGFTFSHYTLSWVRQAPGKGLEWVSVISGDGSYTYYADSVKGRFTISSDNSKNTLYLQMNSLRAEDTAVYYCARNFIKYVFANWGQGTLVTVSSGGGGSGGGGSGGGGSDIELTQPPSVSVAPGQTARISCSGDNIGSFYVHWYQQKPGQAPVLVIYDKSNRPSGIPERFSGSNSGNTATLTISGTQAEDEADYYCQSYANTLSLVFGGGTKLTVLGSGSGDKTHTCPPCPAPEAAGGPSVFLFPPKPKDTLMISRTPEVTCVVVDVSHEDPEVKFNWYVDGVEVHNAKTKPREEQYNSTYRVVSVLTVLHQDWLNGKEYKCKVSNKALGAPIEKTISKAKGQPREPQVYTLPPSREEMTKNQVSLTCLVKGFYPSDIAVEWESNGQPENNYKTTPPVLDSDGSFFLYSKLTVDKSRWQQGNVFSCSVMHEALHNHYTQKSLSLSPGK |
| – | – | 98 nM | αGFP:5:L1:Fc (bispecific antibody) QVQLVESGGGLVQPGGSLRLSCAASGFTFSRYGMHWVRQAPGKGLEWVSGISSIGSNTYYADSVKGRFTISRDNSKNTLYLQMNSLRAEDTAVYYCARWYKTYIDVWGQGTLVTVSSGGGGSGGGGSGGGGSDIELTQPPSVSVAPGQTARISCSGDNLGKKYVYWYQQKPGQAPVLVIYGDDERPSGIPERFSGSNSGNTATLTISGTQAEDEADYYCASYDSSHILIVFGGGTKLTVLGSGSGDVKLVESGGGLVKLGGSLRLSCAASGFSFSTSYMSWVRQTPEKRLELVAAINLNGGSTYYSDTVKGRFTISRDNAKNTLYLQMSSLKSEDTAFYYCASELAGYGTPFAYWGQGTLVTVSAGSAASGSSGGSSSGADIVLTQSPATLSVTPGDSVSLSCKASQSISYNLHWYQQKSHESPRLLIKYTSQSISGIPSRFSGSGSGTDFTLTINNVETEDFGMYFCQQSNSWPLTFGAGTKLEVKGSGSGDKTHTCPPCPAPEAAGGPSVFLFPPKPKDTLMISRTPEVTCVVVDVSHEDPEVKFNWYVDGVEVHNAKTKPREEQYNSTYRVVSVLTVLHQDWLNGKEYKCKVSNKALGAPIEKTISKAKGQPREPQVYTLPPSREEMTKNQVSLTCLVKGFYPSDIAVEWESNGQPENNYKTTPPVLDSDGSFFLYSKLTVDKSRWQQGNVFSCSVMHEALHNHYTQKSLSLSPGK |
| 0.6 nM | 4.9 nM | – | L1:5:F1:Fc (bispecific antibody) DVKLVESGGGLVKLGGSLRLSCAASGFSFSTSYMSWVRQTPEKRLELVAAINLNGGSTYYSDTVKGRFTISRDNAKNTLYLQMSSLKSEDTAFYYCASELAGYGTPFAYWGQGTLVTVSAGSAASGSSGGSSSGADIVLTQSPATLSVTPGDSVSLSCKASQSISYNLHWYQQKSHESPRLLIKYTSQSISGIPSRFSGSGSGTDFTLTINNVETEDFGMYFCQQSNSWPLTFGAGTKLEVKGSGSGEVQLVESGGGLVQPGGSLRLSCAASGFTFSHYTLSWVRQAPGKGLEWVSVISGDGSYTYYADSVKGRFTISSDNSKNTLYLQMNSLRAEDTAVYYCARNFIKYVFANWGQGTLVTVSSGGGGSGGGGSGGGGSDIELTQPPSVSVAPGQTARISCSGDNIGSFYVHWYQQKPGQAPVLVIYDKSNRPSGIPERFSGSNSGNTATLTISGTQAEDEADYYCQSYANTLSLVFGGGTKLTVLGSGSGDKTHTCPPCPAPEAAGGPSVFLFPPKPKDTLMISRTPEVTCVVVDVSHEDPEVKFNWYVDGVEVHNAKTKPREEQYNSTYRVVSVLTVLHQDWLNGKEYKCKVSNKALGAPIEKTISKAKGQPREPQVYTLPPSREEMTKNQVSLTCLVKGFYPSDIAVEWESNGQPENNYKTTPPVLDSDGSFFLYSKLTVDKSRWQQGNVFSCSVMHEALHNHYTQKSLSLSPGK |
